This is an account of results in PMC1184220.

The target in data set [1] is T1, TIAR (TIAR-b, short isoform) (UniProt Q01085 1-375).
T1 sequence: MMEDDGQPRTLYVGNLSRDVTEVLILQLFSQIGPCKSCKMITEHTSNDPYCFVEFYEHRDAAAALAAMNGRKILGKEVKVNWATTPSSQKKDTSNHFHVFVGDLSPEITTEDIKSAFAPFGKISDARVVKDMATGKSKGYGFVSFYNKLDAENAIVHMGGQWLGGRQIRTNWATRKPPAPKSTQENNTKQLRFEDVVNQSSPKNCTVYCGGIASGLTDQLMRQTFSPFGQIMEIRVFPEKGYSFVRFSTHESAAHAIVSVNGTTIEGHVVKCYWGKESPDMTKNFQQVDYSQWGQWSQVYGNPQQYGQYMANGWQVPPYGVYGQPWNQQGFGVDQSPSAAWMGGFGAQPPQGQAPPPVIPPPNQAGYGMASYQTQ
Kind of data set: UV crosslinking.

Data set [2] concerns the target T1, TIAR (TIAR-b, short isoform). Kind of data set: UV crosslinking. The source holds these as a separate data set.
Data set [3] concerns the target T2, TIAR RRM2,3 (UniProt Q01085 94-375).
T2 sequence: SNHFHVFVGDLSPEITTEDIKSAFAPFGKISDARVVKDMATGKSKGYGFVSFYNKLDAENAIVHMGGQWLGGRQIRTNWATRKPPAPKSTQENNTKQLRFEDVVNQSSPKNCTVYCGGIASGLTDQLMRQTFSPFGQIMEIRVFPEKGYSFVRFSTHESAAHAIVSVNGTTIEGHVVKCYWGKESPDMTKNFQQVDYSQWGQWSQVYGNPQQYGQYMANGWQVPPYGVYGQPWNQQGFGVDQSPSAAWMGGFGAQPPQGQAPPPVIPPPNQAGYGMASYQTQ
Kind of data set: UV crosslinking titration.

In data set [4] the target is T3, TIA-1 (UniProt P31483 1-386).
T3 sequence: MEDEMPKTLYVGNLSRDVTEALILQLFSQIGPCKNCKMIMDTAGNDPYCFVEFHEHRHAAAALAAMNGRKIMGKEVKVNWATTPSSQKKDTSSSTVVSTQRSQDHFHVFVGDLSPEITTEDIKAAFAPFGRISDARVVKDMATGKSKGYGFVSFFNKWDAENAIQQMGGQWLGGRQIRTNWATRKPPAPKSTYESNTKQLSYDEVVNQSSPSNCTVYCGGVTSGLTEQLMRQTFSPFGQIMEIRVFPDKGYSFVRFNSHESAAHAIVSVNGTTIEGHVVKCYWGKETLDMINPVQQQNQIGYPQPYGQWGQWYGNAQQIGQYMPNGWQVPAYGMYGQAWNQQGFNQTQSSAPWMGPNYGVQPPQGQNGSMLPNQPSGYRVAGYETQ
The data set is described as follows: UV crosslinking.

Data set [5] concerns the target HuR (UniProt Q15717 1-326). Kind of data set: UV crosslinking.
Data set [6] has as its target T4, TIAR RRM1 (UniProt Q01085 2-93).
T4 sequence: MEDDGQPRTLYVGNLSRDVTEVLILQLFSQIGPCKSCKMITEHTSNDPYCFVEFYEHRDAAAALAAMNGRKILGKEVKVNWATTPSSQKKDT
The data set is described as follows: UV crosslinking titration.

Data set [7] deals with T1, TIAR (TIAR-b, short isoform). The data set is described as follows: competition.
Data set [8] shares this target. The data set is described as follows: UV crosslinking + immunoprecipitation.
Data set [9] has the same target. The data set is described as follows: EMSA. (In general: In EMSA bound probe runs differently from free probe, usually more slowly.)
Data set [10] shares this target. The data set is described as follows: UV crosslinking. This is another data set of the same source.

Chain of HuR (Q15717 whole entry): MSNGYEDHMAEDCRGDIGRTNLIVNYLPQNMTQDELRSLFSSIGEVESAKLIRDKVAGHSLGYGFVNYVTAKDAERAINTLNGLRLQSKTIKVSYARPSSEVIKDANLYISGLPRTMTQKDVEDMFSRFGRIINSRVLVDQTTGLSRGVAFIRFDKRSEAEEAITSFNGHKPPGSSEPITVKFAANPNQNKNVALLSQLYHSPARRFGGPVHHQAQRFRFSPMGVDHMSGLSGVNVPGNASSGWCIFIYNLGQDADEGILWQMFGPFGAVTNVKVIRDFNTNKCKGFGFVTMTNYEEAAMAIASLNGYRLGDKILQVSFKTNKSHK

Regarding CTTTTTTAATTTTAATATTTGTTATCATTTATTTATT (ssDNA) [VEGF-S2], the binding result in [1] was “binds”.

TAAAAATAAATATGTACTACGGAATATCTCGAAAAAC (ssDNA) [VEGF-AS4]: the binding result in [2] is “no binding”.

B1: T7tiar full-length transcript (ssRNA)
RNA: GGGAUAGUAUUGUUUAUAUUGUUCCAAUACGAAAAAAAAAAAAUACUAUUCUCAUCUU
On to B1, for which the binding result in [1] was “binds”.

In the case of AGAATTAAATTCTTTAATACAAAATGCTTTTTTTTTTTTA (ssDNA) [VEGF-AS1], the dissociation constant Kd (commonly the constant that tells how readily two partners part at equilibrium) in data set [3] came out at 3 nM. The binding result is reported as “binds” in [4] and “no binding” in [5].

With TTAATATCTAAAATAAAATAAATT (ssDNA) [IL8-AS1], the binding result in [2] is “no binding”.

Consider TTTTTTTTTTTTTTT (ssDNA) [oligo(dT)15], for which, in data set [2], the binding result is “binds”.

As to AAAAUGCUUUUUUUUUUUUA (ssRNA) [rVEGF-AS1], the binding result in data set [4] is listed as “binds”; in [6], “no binding”.

Consider AAAATGCTTTTTTT (ssDNA) [VEGF-AS1b.2], for which the binding result in [7] is listed as “no binding”.

B2: T7tiar/T7 partial duplex template (mixed)
DNA 1: AAGATGAGAATAGTATTTTTTTTTTTTCGTATTGGAACAATATAAACAATACTATCCCTATAGTGAGTCGTATTA
DNA 2: TAATACGACTCACTATAGGG
On to B2, for which the binding result in data set [8] is “binds”.

On to AAAATGCTTTTTTTTTTTTA (ssDNA) [VEGF-AS1b], for which the binding result in data set [2] was “binds”.

With AATAAATAAATGATAACAAATATTAAAATTAAAAAAG (ssDNA) [VEGF-AS2], the binding result in data set [4], in data set [5], in data set [9] and in [6] was “no binding” each time.

B3: VEGF-S2/VEGF-AS2 duplex (dsDNA)
DNA 1: CTTTTTTAATTTTAATATTTGTTATCATTTATTTATT
DNA 2: AATAAATAAATGATAACAAATATTAAAATTAAAAAAG
In the case of B3, the binding result in [10] was “no binding”.
